This is an account of results in the RNAGym collection of RNA variant scans (doi:10.7554/elife.80360).

B1: Hairpin Ribozyme (parent)
chain: GUCCUCUUUCACGUGCGCGUGAAAGAGAGAAGUGAACCAGAGAAACACACGUUGUGGUAUAUUACCUGGUA

The data set covers variants of B1. The data set can be described thus: self-cleavage, relative activity (ratio to wild type); higher = more cleavage; co-transcriptional.
For GUCCUCUUUCACGUGGGCGUGAAAGAGAGAAGUGAACCAGAGAAGCACACGUUGUGGUAUAUUACCUGGUA, the self-cleavage turned out to be 0.126.

GUCCUCUUUCACGUGGGCGUGAAAGAGAGAAGUGAACCAGAGAAACACACGUUGUGGUAUAUUACCGGGUA: the self-cleavage was 0.191.

In the case of GUCCUCUUUCACGUGGGCGUGAAAGAGAGAAGUGAACCAGAGAAACACACGUUGUGGUAUAUUACCCGGUA, the self-cleavage was 0.155.

For GUCCUCUUUCACGUGUGCGUGAAAGAGAGAAGUGAACCAGAGAAACACACGUUGUGGUAUAUUACGUGGUA, the self-cleavage stood at 0.228.

Consider GUCCUCUUUCACGUGUGCGUGAAAGAGAGAAGUGAACCAGAGAAACACACGUUGUGGUAUAUUACUUGGUA, for which the self-cleavage came out at 0.397.

Take GUCCUCUUUCACGUGUGCGUGAAAGAGAGAAGUGAACCAGAGAAACACACGUUGUGGUAUAUUGCCUGGUA: the self-cleavage came out at 0.505.

As to GUCCUCUUUCACGUGUGCUUGAAAGAGAGAAGUGAACCAGAGAAACACACGUUGUGGUAUAUUACCUGGUA, the self-cleavage was found to be 0.661.

With GUCCUCUUUCACGUGGGCGUGAAAGAGAGAAGUGAACCAGAGAAACACACGUUGUGGUAUAUAACCUGGUA, the self-cleavage was 0.15.

In the case of GUCCUCUUUCACGUGGGCGUGAAAGAGAGAAGUGAACCAGAGAAACACACGUUGUGGUAUAUGACCUGGUA, the self-cleavage is 0.182.

As to GUCCUCUUUCACGUGGUCGUGAAAGAGAGAAGUGAACCAGAGAAACACACGUUGUGGUAUAUUACCUGGUA, the self-cleavage is 1.08.

As for GUCCUCUUUCACGUGUGCGUGAAAGAGAGAAGUGAACCAGAGAACCACACGUUGUGGUAUAUUACCUGGUA, the self-cleavage is 0.066.

For the variant GUCCUCUUUCACGUGGGCGUGAAAGAGAGAAGUGAACCAGAGAAACACACGUUGUGAUAUAUUACCUGGUA, the self-cleavage came to 0.0803.

As to GUCCUCUUUCACGUGUGCGUCAAAGAGAGAAGUGAACCAGAGAAACACACGUUGUGGUAUAUUACCUGGUA, the self-cleavage amounted to 0.749.

With GUCCUCUUUCACGUGUGCGUUAAAGAGAGAAGUGAACCAGAGAAACACACGUUGUGGUAUAUUACCUGGUA, the self-cleavage is 0.991.

As for GUCCUCUUUCACGUGGGCGUAAAAGAGAGAAGUGAACCAGAGAAACACACGUUGUGGUAUAUUACCUGGUA, the self-cleavage came out at 0.515.

Take GUCCUCUUUCACGUGGGCGUCAAAGAGAGAAGUGAACCAGAGAAACACACGUUGUGGUAUAUUACCUGGUA: the self-cleavage is 0.285.

GUCCUCUUUCACGUGGGCGUGAAAGAGAGAAGUGAACCAGAGAAACACACGUUGUGGUCUAUUACCUGGUA: the self-cleavage stood at 0.17.

Turning to GUCCUCUUUCACGUGGGCGUGAAAGAGAGAAGUGAACCAGACAAACACACGUUGUGGUAUAUUACCUGGUA, the self-cleavage was 0.152.

On to GUCCUCUUUCACGUGUGCGUGAAAGAGAGAAGUGAACCAGAGAAACACACGUUGUGGUAUUUUACCUGGUA, for which the self-cleavage came to 0.256.

Turning to GUCCUCUUUCACGUGGGCGUGAAAGAGAGAAGUGAACCAGAGAAACACACGUUGGGGUAUAUUACCUGGUA, the self-cleavage worked out at 0.247.

For GUCCUCUUUCACGUGGGCGUGAAAGAGAGAAGUGAACCAGAGAAACACACGUUGUGGUAUAUUACCUAGUA, the self-cleavage was found to be 0.243.

As for GUCCUCUUUCACGUGGGCGUGAAAGAGAGAAGUGAACCAGAGAAACACACGUUGUGGUAUAUUACCUUGUA, the self-cleavage came out at 0.132.

In the case of GUCCUCUUUCACGUGUGCGUGAAAGAGAGGAGUGAACCAGAGAAACACACGUUGUGGUAUAUUACCUGGUA, the self-cleavage was 0.157.

Regarding GUCCUCUUUCACGUGUGCGUGAAAGAGAGACGUGAACCAGAGAAACACACGUUGUGGUAUAUUACCUGGUA, the self-cleavage was determined as 0.165.

Take GUCCUCUUUCACGUGGGCGUGAAAGAGAGAAGUGAACCAGAGAAACACACGUUGUGGUAUAUUACCUGGAA: the self-cleavage stood at 0.728.

Take GUCCUCUUUCACGUGGGCGUGAAAGAGAGAAGUGAACCAGAGAAACACACGUUGUGGUAUAUUACCUGGCA: the self-cleavage is 0.829.

Turning to GUCCUCUUUCACGUGUGCGUGAAACAGAGAAGUGAACCAGAGAAACACACGUUGUGGUAUAUUACCUGGUA, the self-cleavage amounted to 0.63.

For GUCCUCUUUCACGUGGGCGUGAAAGAGAGAAGUGAACCAGCGAAACACACGUUGUGGUAUAUUACCUGGUA, the self-cleavage turned out to be 1.12.

Consider GUCCUCUUUCACGUGGGCGUGAAAGAGAGAAGUGAACCAGAGAAACACAGGUUGUGGUAUAUUACCUGGUA, for which the self-cleavage stood at 0.157.

Consider GUCCUCUUUCACGUGUGCGUGAAAGAGAGAAGUGAACAAGAGAAACACACGUUGUGGUAUAUUACCUGGUA, for which the self-cleavage came out at 0.172.

As to GUCCUCUUUCACGUGGGCGUGAAAGAGAGAAGUGAACCCGAGAAACACACGUUGUGGUAUAUUACCUGGUA, the self-cleavage is 0.374.

Take GUCCUCUUUCACGUGUGUGUGAAAGAGAGAAGUGAACCAGAGAAACACACGUUGUGGUAUAUUACCUGGUA: the self-cleavage was found to be 0.979.

Consider GUCCUCUUUCACGUGUGCGUGAAAGAGAGAAGUGAACCAGAGAAACACGCGUUGUGGUAUAUUACCUGGUA, for which the self-cleavage worked out at 0.659.

Consider GUCCUCUUUCACGUGGGCGUGAAAGAGAGAAGUGAACCAGAGAAACACACGUUGUGGGAUAUUACCUGGUA, for which the self-cleavage was determined as 0.749.

Regarding GUCCUCUUUCACGUGGGCGUGAAAGAGAGAAGUGAACCAGAGAAACACCCGUUGUGGUAUAUUACCUGGUA, the self-cleavage was found to be 0.117.

Take GUCCUCUUUCACGUGGGCGUGAAAGAGAGAAGUGAACCAGAGAAACACACGUAGUGGUAUAUUACCUGGUA: the self-cleavage amounted to 0.855.

Take GUCCUCUUUCACGUGUGCGUGAAAGAGAGAAGUGAACCAGAGAAACACAUGUUGUGGUAUAUUACCUGGUA: the self-cleavage was determined as 0.366.

With GUCCUCUUUCACGUGGGCGUGAAAGAGAGAAGUGAACCAGAGAAACACACGUUGUCGUAUAUUACCUGGUA, the self-cleavage came to 0.2.

Consider GUCCUCUUUCACGUGGGCGUGAAAGAGAGAAGUGAACCAGAGAAACAUACGUUGUGGUAUAUUACCUGGUA, for which the self-cleavage is 0.154.

In the case of GUCCUCUUUCACGUGGGCGUGAAAGAGAGAAGUGAACCAGAGUAACACACGUUGUGGUAUAUUACCUGGUA, the self-cleavage is 0.157.

In the case of GUCCUCUUUCACGUGUGCGUGAAAGAGAGAAGUGAAGCAGAGAAACACACGUUGUGGUAUAUUACCUGGUA, the self-cleavage was determined as 0.182.

In the case of GUCCUCUUUCACGUGUGCGUGAAAGAGAGAAGUGAACCAGUGAAACACACGUUGUGGUAUAUUACCUGGUA, the self-cleavage turned out to be 1.4.

For GUCCUCUUUCACGUGGGCGUGAAAGAGAGAAGUGAACCAGAGAAACACACGUUGUGGUAUACUACCUGGUA, the self-cleavage amounted to 0.213.

For GUCCUCUUUCACGUGGGCGUGAAAGAGAGAAGUGAAUCAGAGAAACACACGUUGUGGUAUAUUACCUGGUA, the self-cleavage came out at 0.346.

With GUCCUCUUUCACGUGGGCGUGAAAGAGAGAAGUGAACCAGAGAAAAACACGUUGUGGUAUAUUACCUGGUA, the self-cleavage is 0.224.

GUCCUCUUUCACGUGGGCGUGAAAGAGAGAAGUGAACCAGAGAAAGACACGUUGUGGUAUAUUACCUGGUA: the self-cleavage was determined as 0.183.

On to GUCCUCUUUCACGUGGGCGUGAAAGAGAGAAGCGAACCAGAGAAACACACGUUGUGGUAUAUUACCUGGUA, for which the self-cleavage is 0.188.

As for GUCCUCUUUCACGUGUGCGUGAAAGUGAGAAGUGAACCAGAGAAACACACGUUGUGGUAUAUUACCUGGUA, the self-cleavage stood at 0.817.

Consider GUCCUCUUUCACGUGUGCGUGAAAGAGAGAAGUGAACCAGAGAAACACACGUUGUGGUUUAUUACCUGGUA, for which the self-cleavage worked out at 0.173.

Turning to GUCCUCUUUCACGUGGGCGUGAAAGAGAUAAGUGAACCAGAGAAACACACGUUGUGGUAUAUUACCUGGUA, the self-cleavage was determined as 0.0825.

Regarding GUCCUCUUUCACGUGGGCGUGAAAGAGAAAAGUGAACCAGAGAAACACACGUUGUGGUAUAUUACCUGGUA, the self-cleavage was 0.202.

As for GUCCUCUUUCACGUGUGCGUGAAAGAGAGAAGUGCACCAGAGAAACACACGUUGUGGUAUAUUACCUGGUA, the self-cleavage is 1.39.

As for GUCCUCUUUCACGUGUGCGUGAAAGAGAGAAGUGGACCAGAGAAACACACGUUGUGGUAUAUUACCUGGUA, the self-cleavage was determined as 0.937.

GUCCUCUUUCACGUGGGCGUGAAAGAGAGAAGUGAACCAGAGAAACACACGUUGUGGUAUAUUACAUGGUA: the self-cleavage amounted to 0.197.

Consider GUCCUCUUUCACGUGUGCGUGAAAGAGAGAAGUGAGCCAGAGAAACACACGUUGUGGUAUAUUACCUGGUA, for which the self-cleavage amounted to 1.34.

On to GUCCUCUUUCACGUGGGCGUGAAAGAGAGAAGUGAACGAGAGAAACACACGUUGUGGUAUAUUACCUGGUA, for which the self-cleavage came to 0.191.

Take GUCCUCUUUCACGUGGGCGUGAAAGAGAGAAGUGAACAAGAGAAACACACGUUGUGGUAUAUUACCUGGUA: the self-cleavage came to 0.154.

GUCCUCUUUCACGUGUGCGUGAAAGAGAGAAGUGAACCAGAGAAACACACGUUGUGGUAUAUUAACUGGUA: the self-cleavage came to 1.15.

Turning to GUCCUCUUUCACGUGUGCGUGAAAGAGAGAAGUGAACCAGAGAAACACACGUUGUGGUAUAUUACCUGGUA, the self-cleavage is 1.04.

For GUCCUCUUUCACGUGGGCGUGAAAGAGAGAAAUGAACCAGAGAAACACACGUUGUGGUAUAUUACCUGGUA, the self-cleavage came out at 0.179.

With GUCCUCUUUCACGUGGGCGUGAAAGAGAGAAGUGAACCAGAGAAACACACGUUGUGGUAUCUUACCUGGUA, the self-cleavage was determined as 0.2.

On to GUCCUCUUUCACGUGGGCGUGAAAGAGAGAAGUGAACCACAGAAACACACGUUGUGGUAUAUUACCUGGUA, for which the self-cleavage was determined as 0.143.

As for GUCCUCUUUCACGUGGGCGUGAAAGAGAGAAGUGAACCAUAGAAACACACGUUGUGGUAUAUUACCUGGUA, the self-cleavage worked out at 0.173.

On to GUCCUCUUUCACGUGGGCGUGAAAGAGAGAAGUGAACCAGAGAAACACACGUUCUGGUAUAUUACCUGGUA, for which the self-cleavage was 0.393.

As to GUCCUCUUUCACGUGUGCGUGAAAGAGAGAAGUGAACCAGAGAAACACACGUUGUGGUAUAUUACCUGGUG, the self-cleavage is 1.08.

Regarding GUCCUCUUUCACGUGUGCGUGAACGAGAGAAGUGAACCAGAGAAACACACGUUGUGGUAUAUUACCUGGUA, the self-cleavage was determined as 1.12.

With GUCCUCUUUCACGUGGGCGUGAAAGAGAGAAGUGAACCAGAGAAACUCACGUUGUGGUAUAUUACCUGGUA, the self-cleavage came to 0.06.

As for GUCCUCUUUCACGUGUGCGUGAAAGAGAGAAGUGAACCAGAGAAAUACACGUUGUGGUAUAUUACCUGGUA, the self-cleavage stood at 0.143.

Turning to GUCCUCUUUCACGUGGGCGUGAAAGAGAGAAGUCAACCAGAGAAACACACGUUGUGGUAUAUUACCUGGUA, the self-cleavage came out at 1.22.

With GUCCUCUUUCACGUGGGCGUGAAAGAGAGAAGUGAACCAGAGACACACACGUUGUGGUAUAUUACCUGGUA, the self-cleavage was 0.0851.

For GUCCUCUUUCACGUGGGCGUGAAAGAGAGAAGUGAACCAGAGAUACACACGUUGUGGUAUAUUACCUGGUA, the self-cleavage stood at 0.16.

Regarding GUCCUCUUUCACGUGGGCGUGAAAGAGAGAAGUGAACCAGAGAAACACACGUUGUGGUAUAUUACCUGUUA, the self-cleavage worked out at 0.196.

For GUCCUCUUUCACGUGGGCGUGAAAGAGAGAAGUGAACCAGAGAAACACACGUUGUGGUAUAUUACCUGAUA, the self-cleavage was found to be 0.225.

In the case of GUCCUCUUUCACGUGUGCGUGAAAGAGAGAAGUGAACCAGAGAGACACACGUUGUGGUAUAUUACCUGGUA, the self-cleavage amounted to 0.101.

Regarding GUCCUCUUUCACGUGUGCGUGAAAGAGAGAAGUGAACCAGAGACACACACGUUGUGGUAUAUUACCUGGUA, the self-cleavage was 0.0379.

Take GUCCUCUUUCACGUGUGCGUGAAAGAGAGAAGUGAACCAGAGAUACACACGUUGUGGUAUAUUACCUGGUA: the self-cleavage was 0.154.
